The values below come from paper PMC6368608 (Nature Communications, 2019).

Holding throughout (conditions): both partners purified
Experiment [1] deals with T1, C.CH505TF gp120 (HIV-1 clade C, CH505 transmitted/founder, UniProt M4M0W3, strain). The experiment is described as follows: SPR.
The target of experiment [2] is T2, C.CH505TF gp120 (HIV-1 clade C, CH505 transmitted/founder, UniProt M4M0W3, strain). Nature of the experiment: SPR; BIAcore T200; […]) 5 min at 50 µL/min, 10 min dissociation; […]; global 1:1 Langmuir fit; […].
For experiment [3], the target named is T1, C.CH505TF gp120. The experiment is described as follows: SPR. The source holds these as a separate data set.
The target of experiment [4] is T2, C.CH505TF gp120. The experiment is described as follows: SPR; BIAcore T200; […]) 5 min at 50 µL/min, 10 min dissociation; […]; global 1:1 Langmuir fit; […]. The source holds these as a separate data set.

Numbering of substitutions follows the chain as printed. Names and notes keep the numbering of the source.

The term koff denotes the rate constant with which the complex falls apart. By kon is commonly meant the rate constant with which the complex forms. A high value points to fast association. The Kd is the free concentration of one partner at which half of the binding sites on the other are occupied at equilibrium, for simple one-to-one binding.

B1: CH103 lineage intermediate I3 (antibody, V domains shown)
VH: QVQLQESGPGLVKSSETLSLTCTVSGGSMGGYYWSWLRQSPVKGLEWIGYIFHTGHTNYNPSLESRVTVSVDTSENQFSLRLRSVTAADTAVYYCASLPRGQLVNAFFDNWGQGTLVTVAS
VL: not shown
Turning to B1, in the experiment with C.CH505TF gp120 [1], the koff was found to be 0.000234 s⁻¹ and the kon is 24500 M⁻¹ s⁻¹.

B2: I3 (CH103 lineage intermediate) (antibody, V domains shown)
VH: B1 VH
VL: not shown
For the molecule B2, in the experiment with C.CH505TF gp120 [2], the Kd worked out at 9.53 nM.

B3: CH103 UCA (antibody, V domains shown)
VH: QVQLQESGPGLVKPSETLSLTCTVSGGSISSYYWSWIRQPPGKGLEWIGYIYYSGSTNYNPSLKSRVTISVDTSKNQFSLKLSSVTAADTAVYYCASLPRGQLVNAYFDYWGQGTLVTVSS
VL: not shown
notes: also called unmutated common ancestor of the CH103 lineage
In the experiment with C.CH505TF gp120 [3], B3 registered a kon of 23500 M⁻¹ s⁻¹.

B4: UCA-S30G (antibody, V domains shown)
VH: B3 VH with S30G
VL: not shown
In the experiment with C.CH505TF gp120 [2], B4 gave a Kd of 400 nM.

B5: CH103 UCA (antibody, V domains shown)
VH: B3 VH
VL: not shown
notes: also called unmutated common ancestor of the CH103 lineage; wild-type UCA
For B5, in the experiment with C.CH505TF gp120 [4], the koff stood at 0.0101 s⁻¹ and the kon was above 10000 M⁻¹ s⁻¹. Besides, in the experiment with C.CH505TF gp120 [2], the Kd was 430 nM.

B6: CH103 UCA-S30G (antibody, V domains shown)
VH: B3 VH with S30G
VL: not shown
In the experiment with C.CH505TF gp120 [3], B6 had a koff of 0.0117 s⁻¹ and a kon of 29600 M⁻¹ s⁻¹.

B7: CH103 UCA-S30G/S31G (antibody, V domains shown)
VH: B3 VH with S30G, S31G
VL: not shown
Take B7: in the experiment with C.CH505TF gp120 [3], the off-rate (koff) was found to be 0.011 s⁻¹ and the on-rate constant (kon) was 25200 M⁻¹ s⁻¹.

B8: UCA-S30G/S31G (antibody, V domains shown)
VH: B3 VH with S30G, S31G
VL: not shown
As for B8, the affinity in the experiment with C.CH505TF gp120 [2], expressed as Kd, was 440 nM.

B9: CH103 UCA-P14S (antibody, V domains shown)
VH: B3 VH with P14S
VL: not shown
In the case of B9, in the experiment with C.CH505TF gp120 [3], the dissociation rate constant (koff) turned out to be 0.0112 s⁻¹ and the kon amounted to 30000 M⁻¹ s⁻¹.

B10: UCA-P14S (antibody, V domains shown)
VH: B3 VH with P14S
VL: not shown
B10 yielded a Kd with C.CH505TF gp120 [2] of 370 nM.

B11: CH103-S14P (antibody, V domains shown)
V domain 1: QVQLQESGPGVVKPSETLSLTCTVSGGSMGGTYWSWLRLSPGKGLEWIGYIFHTGETNYSPSLKGRVSISVDTSEDQFSLRLRSVTAADTAVYFCASLPRGQLVNAYFRNWGRGSLVSVTA
V domain 2: YELTQPPSVSVSPGQTATITCSGASTNVCWYQVKPGQSPEVVIFENYKRPSGIPDRFSGSKSGSTATLTIRGTQAIDEADYYCQVWDSFSTFVFGSGTQVTVL
With B11, in the experiment with C.CH505TF gp120 [3], the dissociation constant Kd was found to be 50 nM, the dissociation rate constant (koff) turned out to be 0.000262 s⁻¹ and the association rate constant (kon) stood at 5200 M⁻¹ s⁻¹.

B12: CH103-S14P/G30S (antibody, V domains shown)
V domain 1: B11 V domain 1 with G30S
V domain 2: B11 V domain 2
Consider B12, for which, in the experiment with C.CH505TF gp120 [3], the Kd was 70 nM, the off-rate (koff) was 0.0003 s⁻¹ and the on-rate constant (kon) came to 4000 M⁻¹ s⁻¹.
